Results from patent US5622828, “High-affinity oligonucleotide ligands to secretory phospholipase A2 (sPLA2)” (Nexstar Pharmaceuticals, Inc.).
Residue numbers refer to the chain shown, from its start.

T1: secretory phospholipase A2 (sPLA2) (Homo sapiens, UniProt P14555 P14555:21-144)
T1 sequence: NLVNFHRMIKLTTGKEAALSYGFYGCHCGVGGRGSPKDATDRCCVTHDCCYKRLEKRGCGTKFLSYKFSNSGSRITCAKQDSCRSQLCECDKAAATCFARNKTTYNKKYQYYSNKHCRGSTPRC

B1: 72F (ssRNA)
RNA: GGGAGCUCAGAAUAAACGCUCAAGACCUCUGCUUACAGCCCGGCUGAGACACUUCGACAUGAGGCCCGGAUCCGGC
modifications: 2'-F all C and U
B2: 11tF (ssRNA)
RNA: GGGAGCUCAGAAUAAACGCUCAACUUACGGGUAAAGCCGAGAAAAUGUAUUGCUUCGACAUGAGGCCCGGAUCCGGC
modifications: 2'-F all C and U
B3: 73tF (ssRNA)
RNA: GGGAGCUCAGAAUAAACGCUCAACUUACAGUUCGGCUGAGAGAAGACGCAUACUUCGACAUGAGGCCCGGAUCCGGC
modifications: 2'-F all C and U
B4: 86tF (ssRNA)
RNA: GGGAGCUCAGAAUAAACGCUCAACGCCUCAUGCCAAUGCGGGAGGGUGGGUGGUUCGACAUGAGGCCCGGAUCCGGC
modifications: 2'-F all C and U
B5: NN29 (ssRNA)
RNA: GGGAAAAGCGAAUCAUACACAAGACCGGCCCGGUGUGUAGCCGGAGAUCCGAGACUUGCUGAACGAGGUGCCACGGCUCCGCCAGAGACCAACCGAGAA
modifications: 2'-NH2 all C and U
B6: NN41 (ssRNA)
RNA: B5 RNA with U38C, G65A
modifications: 2'-NH2 all C and U
B7: NN10 (ssRNA)
RNA: GGGAAAAGCGAAUCAUACACAAGACCGGCCGGCGCCAUAGCCGAGAUCCGAGGUUGUACGAUGACAACUCAGUGCUCCGCCAGAGACCAACCGAGAA
modifications: 2'-NH2 all C and U
B8: NN5 (ssRNA)
RNA: GGGAAAAGCGAAUCAUACACAAGACCGGCCCCGCCAAUCAAGGGAGAUCCGAGGAAUUGGAAUGUUUGUGAGUGAGCUCCGCCAGAGACCAACCGAGAA
modifications: 2'-NH2 all C and U
B9: NN11 (ssRNA)
RNA: GGGAAAAGCGAAUCAUACACAAGACCGGCCGGGGAAACCCGAGGUCCGAGGUAACGCAUGGCGCCUCACCGAGUCGCUCCGCCAGAGACCAACCGAGAA
modifications: 2'-NH2 all C and U
B10: NN16 (ssRNA)
RNA: B9 RNA with G44A
modifications: 2'-NH2 all C and U
B11: NN2 (ssRNA)
RNA: GGGAAAAGCGAAUCAUACACAAGAGACCGGCCAGCCAAGGCGCUGAGAUCCGAGGUUUCAGAACCCAUCGGGUUGGCUCCGCCAGAGACCAACCGAGAA
modifications: 2'-NH2 all C and U
B12: NS39 (ssRNA)
RNA: GGGAGGACGAUGCGGGUAGGGAUGAAGUGCGAUGUGAAUCCGGGUGCUAGCGAUGAUGUGUGCCCCAGACGACUCGCCCGA
modifications: 2'-NH2 all C and U
B13: NS49 (ssRNA)
RNA: GGGAGGACGAUGCGGAUAAGGAUAAGAUCGAACGAGAGUGAACAAAGUUAAAUACAGUCUGGGGGCAGACGACUCGCCCGA
modifications: 2'-NH2 all C and U
B14: NS48 (ssRNA)
RNA: GGGAGGACGAUGCGGGCUAAGGGAAGACAAUGAGAUAGCAGACAAUCAACUACACCCAUGUGCGUCAGACGACUCGCCCGA
modifications: 2'-NH2 all C and U
B15: NN19.11 (ssRNA)
RNA: GGGAAAAGAAGACCGGCCGGCGCCAUAGCCGAGAUCCGAGGUGUUGAACGAUAGACCAACCGAGAA
modifications: 2'-NH2 all C and U
B16: NS4 (ssRNA)
RNA: GGGAGGACGAUGCGGGUAGGGAUAAGCGAGUGUACAGCGAAUACGACUCGGAAUGCUUGGUGCGCCAGACGACUCGCCCGA
modifications: 2'-NH2 all C and U
B17: NS12 (ssRNA)
RNA: GGGAGGACGAUGCGGUGAAAGAGAAAGGUUGAGAUGAUUACAAGCGAAUUGGAUAAGUGUCUGGCCAGACGACUCGCCCGA
modifications: 2'-NH2 all C and U
B18: NN1 (ssRNA)
RNA: GGGAAAAGCGAAUCAUACACAAGACGGCGAGCAUGCGGCGAGUGGAGGGGGACUGAUGGAGGGCGAGACCGUGUGCUCCGCCAGAGACCAACCGAGAA
modifications: 2'-NH2 all C and U
B19: NN22 (ssRNA)
RNA: B18 RNA with G49A
modifications: 2'-NH2 all C and U
B20: NS1 (ssRNA)
RNA: GGGAGGACGAUGCGGAUAAGGAGGAGCAAGCGAGAAAUUGAGAAGUAACAAGAUCGACAUGGCCCCAGACGACUCGCCCGA
modifications: 2'-NH2 all C and U
B21: NS14 (ssRNA)
RNA: GGGAGGACGAUGCGGAAAUGUGUUAGUGAAUGAUUGAGAGAAGAUAGAUGAUGUUGAAGUCUGGCCAGACGACUCGCCCGA
modifications: 2'-NH2 all C and U
B22: NS6 (ssRNA)
RNA: GGGAGGACGAUGCGGAACUAAAAGACAGAGAGAAAACGACAAUACGAAGUACAUAUAACCCUGGCCAGACGACUCGCCCGA
modifications: 2'-NH2 all C and U
B23: NN19.14 (ssRNA)
RNA: GGGAAAAGAAGACCGGCCGGCGCCAUAGCCGAGAUCCGAGGUGUUGAACGAUCCGAGAA
modifications: 2'-NH2 all C and U
B24: NS2 (ssRNA)
RNA: GGGAGGACGAUGCGGUAGUAACGGAUACUGAUCCGAGGUUAUAGUCACUAUAUCAUCCGCUGCGCCAGACGACUCGCCCGA
modifications: 2'-NH2 all C and U
B25: NS10 (ssRNA)
RNA: GGGAGGACGAUGCGGUGACAAAUGAGCAAGUAGCGAUAGAUGUGAUGGACAGAGACAGCCGGGGCCAGACGACUCGCCCGA
modifications: 2'-NH2 all C and U
B26: NN30 (ssRNA)
RNA: GGGAAAAGCGAAUCAUACACAAGAGCCAGCGAGUGUCGACAGUGUGGGUGGAAGUGACGGGAGGAUUGGAGACGCUCCGCCAGAGACCAACCGAGAA
modifications: 2'-NH2 all C and U
B27: NN19.13 (ssRNA)
RNA: GGGAAAAGAAGACCGGCCGGCGCCAUAGCCGAGAUCCGAGGUGUUGAGACCAACCGAGAA
modifications: 2'-NH2 all C and U
B28: NS13 (ssRNA)
RNA: GGGAGGACGAUGCGGUGAGCUUAGGAUAGGAGCAACAAGUAGAGUAGAGUGAUAACUAGGGUGGCCAGACGACUCGCCCGA
modifications: 2'-NH2 all C and U
B29: NS18 (ssRNA)
RNA: GGGAGGACGAUGCGGAAGUAGAUGAUGGAUUGAGAUGUAAGUGUCAGUAUGAAGAGUCUCUGGGCCAGACGACUCGCCCGA
modifications: 2'-NH2 all C and U
B30: NS7 (ssRNA)
RNA: GGGAGGACGAUGCGGAGGAAAUGAAGUAGUGAGAGUAUAACAUGAUUAUGAAUACGUGAUGUGGCCAGACGACUCGCCCGA
modifications: 2'-NH2 all C and U
B31: NN40 (ssRNA)
RNA: GGGAAAAGCGAAUCAUACACAAGACCCCUUGAGCUCGUGACGCAGGAGGAGGGCCGAGGAGGAAAGUCGUCACAGCUCCGCCAGAGACCAACCGAGAA
modifications: 2'-NH2 all C and U

biological target: T1, secretory phospholipase A2 (sPLA2); assay: filter; monophasic; TBSC, 37 C; settings: tags: supplied by Eli Lilly
Experimental: (§1) The nitrocellulose filter partitioning method was used as described in SELEX Patent Applications to determine the affinity of RNA ligands for sPLA_2 and for other promins. Filter discs (nitrocellulose/cellulose acetate mixed matrix, 0.45 µm pore size, Millipore) were placed on a vacuum manifold and washed with 5 ml of TBSC buffer under vacuum. Reaction mixtures, containing ^32P labeled RNA pools and sPLA_2, were incubated in TBSC for 5 minutes at 37° C., filtered, and then immediately washed with 5 ml TBSC. The filters were air-dried and counted in a Beckman liquid scintillation counter without fluor.
(§2) The dissociation constants for representative members of families I–VI, orphan and other ligands were determined by nitrocellulose filter binding experiments and are listed in Table III. Unlike random RNA, all tested ligands from the 2'OH SELEXes bound biphasically.

Row | Binder | Kd [nM]
1 | B1 | 5.6
2 | B2 | 7
3 | B3 | 14
4 | B4 | 12

same assay, conditions: tags: supplied by Eli Lilly; hairpin with asymmetric internal loop

Row | Binder | Kd [nM]
5 | B5 | 2.5
6 | B6 | 1.2
7 | B7 | 0.4
8 | B8 | 4.6
9 | B9 | 2.8
10 | B10 | 0.9
11 | B11 | 1.2

biological target: T1, secretory phospholipase A2 (sPLA2); assay: filter; TBSC, 37 C; settings: tags: supplied by Eli Lilly
Experimental: as §1, §2

Row | Binder | Kd [nM]
12 | B12 | 16
13 | B13 | 26
14 | B14 | 42
15 | B15 | 0.5
16 | B16 | 24
17 | B17 | 40
18 | GGGAAAAGAAGACCGGCCGGCGCCAUAGCCGAGAUCCGAGGUGUUGA (ssRNA, 2'-NH2 all C and U) [NN19.4] | 7.3
19 | B18 | 21
20 | B19 | 36
21 | B20 | 42
22 | B21 | 12
23 | B22 | 28
24 | B23 | 1
25 | B24 | 22
26 | B25 | 22
27 | B26 | 23
28 | B27 | 2.2
29 | B28 | 15
30 | B29 | 52
31 | B30 | 18
32 | B31 | 31
